Source: publication PMC3534379

How the values were obtained:
[1] = molecular target: ß-TrCP N-terminally fused to the C-terminal fragment of click beetle green (UniProt Q9Y297); assay: click beetle luciferase complementation assay in living 293T cells; settings: 36 h after transfection, equal amounts of plasmids, D-Luciferin added, read off a plot
[2] = molecular target: human CD4 C-terminally fused to the C-terminal fragment of click beetle green (UniProt P01730); assay: as above; settings: read off a plot
[3] = molecular target: human CD4 C-terminally fused to the C-terminal fragment of click beetle green (UniProt P01730)
[4] = + ß-TrCPΔF cotransfected (grey bars), parent: est. 20
[5] = without ß-TrCPΔF (coloured bars), parent: est. 8
[6] = + ß-TrCPΔF cotransfected (grey bars), parent: est. 14
[7] = without ß-TrCPΔF (coloured bars), parent: est. 13

UniProt Q9Y297, sequence (Q9Y297 whole entry, the tested form may be a part): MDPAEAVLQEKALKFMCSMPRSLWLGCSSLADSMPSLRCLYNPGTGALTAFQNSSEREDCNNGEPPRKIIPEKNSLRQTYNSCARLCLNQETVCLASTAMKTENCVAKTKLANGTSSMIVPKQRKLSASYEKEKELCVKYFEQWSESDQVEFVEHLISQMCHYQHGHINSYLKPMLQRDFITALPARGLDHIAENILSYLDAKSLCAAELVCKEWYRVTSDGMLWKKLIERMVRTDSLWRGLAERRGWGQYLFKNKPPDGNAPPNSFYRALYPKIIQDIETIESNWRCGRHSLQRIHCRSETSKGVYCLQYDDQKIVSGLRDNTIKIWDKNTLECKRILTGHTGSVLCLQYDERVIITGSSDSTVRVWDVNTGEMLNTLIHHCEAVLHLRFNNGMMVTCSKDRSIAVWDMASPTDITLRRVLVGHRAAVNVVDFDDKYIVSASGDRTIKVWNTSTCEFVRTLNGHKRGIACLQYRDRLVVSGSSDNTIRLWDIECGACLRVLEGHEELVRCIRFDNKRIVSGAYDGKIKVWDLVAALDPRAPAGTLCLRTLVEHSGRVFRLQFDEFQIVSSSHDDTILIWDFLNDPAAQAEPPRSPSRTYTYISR

HIV-1 group M NL4-3 Vpu C-terminally fused to the N-terminal fragment of click beetle green G53D
response (RLU/s x 1.000) ([1]; parent: est. 6.2): 2.2
response (RLU/s x 1.000) [2, 4]: 22
response (RLU/s x 1.000) [2, 5]: 30

HIV-1 group M NL4-3 Vpu C-terminally fused to the N-terminal fragment of click beetle green S52A; S56A
response (RLU/s x 1.000) ([1]; parent: est. 6.2): 2.2
response (RLU/s x 1.000) [2, 4]: 24
response (RLU/s x 1.000) [2, 5]: 29

HIV-1 group N DJO0131 Vpu C-terminally fused to the N-terminal fragment of click beetle green (natural protein)
reduction in CD4 cell surface expression (293T cells, flow cytometry) [3]: 2.8 fold

HIV-1 group N YBF30 Vpu C-terminally fused to the N-terminal fragment of click beetle green (from UniProt O91085) G51D
response (RLU/s x 1.000) ([1]; parent: est. 4.7): 1.3
response (RLU/s x 1.000) [2, 6]: 12
response (RLU/s x 1.000) [2, 7]: 18

HIV-1 group N YBF30 Vpu C-terminally fused to the N-terminal fragment of click beetle green (from UniProt O91085) S52A; S56A
response (RLU/s x 1.000) ([1]; parent: est. 4.7): 0.9
response (RLU/s x 1.000) [2, 6]: 19
response (RLU/s x 1.000) [2, 7]: 17
